Values belong to the molecule of their own block, whether it stands above or below them. Where a SMILES comes first, the peptide text is derived from it. Where no end group is shown, it is not given here. [ ]: non-standard residue; d: D form. Ala(indol-4-yl) = N[C@@H](Cc1cccc2[nH]ccc12)C(=O)O; Gly(cPent) = N[C@H](C(=O)O)C1CCCC1; Tic = O=C(O)[C@@H]1Cc2ccccc2CN1; Chg = N[C@H](C(=O)O)C1CCCCC1; Pip = O=C(O)[C@@H]1CCCCN1; Idg = not defined here
What was measured:
[1] = target: MHC class II HLA-DR2 (DRA*0101/DRB1*1501) (human); experiment: competition binding assay, purified HLA-DR, biotinylated reference peptide SEQ ID NO 107 as competitor, L243 capture
DRB1*1501 molecules = DRB1*1501 molecules (Homo sapiens, UniProt P01903+P01911); conditions: DR2 haplotype; cited from earlier work
DRB5*0101 molecules = DRB5*0101 molecules (Homo sapiens, UniProt P01903+Q30154); conditions: DR2 haplotype; cited from earlier work
T cell proliferation = conditions: cited from earlier work
[2] = in vivo; cited from earlier work
DR13 (HLA-DR molecules) = experiment: HLA II binding assay, DR13; parameters: species or system human; conditions: read-out: Inhibition of peptide binding IC50 DR13
DR2a = target: T1, DR2a (human, UniProt P01903 26-216, limits assumed); experiment: competition binding assay, purified HLA-DR, biotinylated reference peptide (not named), L243 capture
T1 construct: mature

[3] = target: T2, MHC class II HLA-DR2 (DRA*0101/DRB1*1501) (human, UniProt P01903 26-254; P01911 30-266, limits assumed); experiment: competition binding assay, purified HLA-DR, biotinylated reference peptide SEQ ID NO 107 as competitor, L243 capture
T2 construct: mature; Detergent-solubilised native molecule purified from cells; also called DR2b

Molecule: Ac(Cpg)R(Tic)F(hPro) (peptide)
- IC50 [1]: 75 nM

Molecule: MBP (84-102): immunodominant myelin basic protein (84-102) peptide (DPGSRPHLIRLFSRDAPGR; Myelin basic protein; UniProt P02686 84-102, looked up, fragment)
- binding affinity to DRB1*1501 molecules (DRB1*1501 molecules): high affinity
- binding affinity to DRB5*0101 molecules (DRB5*0101 molecules): high affinity

Molecule: a(Cha)AAAKTAAAAa-NH2
- suppression of T cell proliferation in response to protein antigens (T cell proliferation): did not supress T cell proliferation
- activity in animal models of autoimmune disease [2]: did not show activity

Molecule: CC(=O)N[C@H](C(=O)N[C@@H](CCCNC(=N)N)C(=O)N1Cc2ccccc2C[C@H]1C(=O)N[C@@H](Cc1ccccc1)C(=O)N1CCCC[C@H]1C(N)=O)C1CCCC1 [Ac(Cpg)R(Tic)F(hPro), Ac(Cpg)R(Tic)F(homo Pro)] (Ac-[Gly(cPent)]R[Tic]F[Pip]-NH2; N-terminus and C-terminus assumed)
- IC50 (DR13 (HLA-DR molecules)): > 100000 nM

B5: Ac(Chg)RF(4′-IndolylAla)KNI (peptide)
peptide: Ac-[Chg]RF[Ala(indol-4-yl)]KNI
modifications: not fully specified; printed as Ac(Chg)RF(4′-IndolylAla)KNI
notes: also called Entry 79
- IC50 (DR2a): 3580 nM
- IC50 [3]: 6 nM

Other lines, results leading:

- IC50 (DR2a): 685 nM
- IC50 [3]: 3 nM
B1: AcV(Chg)RFFK (peptide)
peptide: Ac-V[Chg]RFFK
modifications: not fully specified; printed as AcV(Chg)RFFK
notes: also called Entry 85

- IC50 [3]: 450 nM
B2: AcVHFFKNI (peptide)
peptide: Ac-VHFFKNI
notes: also called Entry 2

- IC50 (DR2a): 630 nM
- IC50 [3]: 25 nM
B3: Ac(Cpg)RFFKNI (peptide)
peptide: Ac-[Gly(cPent)]RFFKNI
modifications: not fully specified; printed as Ac(Cpg)RFFKNI
notes: also called Entry 25

- IC50 (DR2a): 17 nM
- IC50 [3]: 90 nM
B4: Ac(Idg)RFFKNI (peptide)
peptide: Ac-[Idg]RFFKNI
modifications: not fully specified; printed as Ac(Idg)RFFKNI; reading uncertain
notes: also called Entry 64
